# Measured values from US5910478A, “Peptidomimetics inhibiting the oncogenic action of p21 ras” (Innapharma, Inc., dated 1999).
# Target: T1, recombinant transforming ras p21 (human)
# T1 chain: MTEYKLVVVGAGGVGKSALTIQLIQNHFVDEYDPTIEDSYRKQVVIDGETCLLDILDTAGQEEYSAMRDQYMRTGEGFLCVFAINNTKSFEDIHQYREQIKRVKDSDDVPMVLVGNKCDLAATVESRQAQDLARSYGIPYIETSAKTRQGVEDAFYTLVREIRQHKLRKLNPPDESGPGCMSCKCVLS
# Assay: cell-based or functional assay
# Settings: not given
row,Molecule,Present Inhibition of ras-Induced Maturation
1,CDLAART [peptide of SEQ ID NO:9 (residues 118 to 124 of SEQ ID NO:5)],65 percent
2,KCDLA [peptide of SEQ ID NO:2 (residues 117 to 121 of SEQ ID NO:5)],38 percent
3,DLAA [peptide of SEQ ID NO:4 (residues 119 to 122 of SEQ ID NO:5)],22 percent
4,TIEDSYRKQVVID [peptide of SEQ ID NO:6 (residues 35 through 47 of SEQ ID NO:5)],28 percent

# Results, then the molecule that gave them:
row,Present Inhibition of ras-Induced Maturation,Molecule
1,76 percent,IKRVKD [peptide of SEQ ID NO:1 (residues 100 to 105 of SEQ ID NO:5)]
2,22 percent,KRV [Lys-Arg-Val]
3,92 percent,GNKCDLAARTVE [peptide of SEQ ID NO:8 (residues 115 to 126 of SEQ ID NO:5)]
4,56 percent,YREQIKRVKDSDDVP [peptide of SEQ ID NO:7 (residues 96 to 110 of SEQ ID NO:5)]
5,34 percent,VVI [Val-Val-Ile]

# Tested on: oncogenic ras-p-21
# Assay: not given
# Settings: background; cited from earlier work
row,Molecule,inhibition of oncogenic ras-p-21
1,N[C@@H](Cc1ccc(O)cn1)C(=O)O [Azatyrosine],strongly inhibits
